Measured values reported in article PMC9849103 (Nature Communications, 2023).

B1: C3095 (antibody, V domains shown)
VH: EVQLVETGGGLIQPGGSLRLSCAASEFIVSANYMHWVRQAPGQGLEWVSVIYAGGSTFYADSVKGRFTISRDNSKNSLYLQMNSLRAEDTAVYYCARGLGDYFDFWGQGTLVTVSS
VL: DIQMTQSPSTLSASVGDRVTITCRASQSFSDWLAWYQQKPGSAPKLLIYRASSLESGVPSRFSGSGSGTEFTLTISSLQPDDFATYYCQQYNTYPLTFGGGTKVEIK
notes: source: 293-6E cells, transfected, purified (Protein G Sepharose)
B2: C3055 (antibody, V domains shown)
VH: QVQLVQSGAEVKKPGSSVNVSCRASGGTFSSKTISWVRQAPGQGLEWMGKIFPILGVANYAQKFQGRVTITADRSTNTAYMELNSLRSEDTAIYYCATEEGYSSSRSLPAEYFRQWGQGTLVTVSS
VL: QSVLTQPPSVSGAPGQRVTISCTGSNSNIGAGYDVHWYQQLPGTAPKLLIYANTNRPSGVPDRFSGSKSGTSASLAITGLQAEDEADYYCQSYDSGLSGSLFGGGTKLTVL
notes: as for B1
B3: C3108 (antibody, V domains shown)
VH: QVQLQESGPGLVKPSQTLSLTCTVSGGSISSGGYYWNWIRQSPVKGLEWIGYIYYSGGTYYNPSLRSRLTISLDTSNNQFSLRLNSVTAADTAIYYCARDQGAITFGTDAFEIWGQGTMVTVSS
VL: DIQMTQSPSSLSASVGDRVTITCQASQDISKYLNWYQQKPGKAPKLLIYGASTLKAGVPSRFSGSGSGTDFTFTISSLQPEDIATYYCQQYDSLPPTFGGGTKVEIK
notes: as for B1

Target: WT RBD (SARS-CoV-2 Wuhan-Hu-1 spike receptor binding domain) (SARS-CoV-2 (Wuhan-Hu-1), UniProt P0DTC2)
Experiment: BLI
Conditions: both partners purified

Binder	Kd
B1	1.58 pM
B2	592 pM
B3	960 pM
